Test results published in US20160272693A1 (ZEALAND PHARMA A S, published 2016).
*1 amine or outer side, *2 acyl side, *3 side chain or, on linkers, in order; H or OH if unused. Bridges are numbered along the chain shown (N, C = ends). [ ]: non-standard residue; d: D form. The star is where a group is joined. C20 diacid = O=C(O)CCCCCCCCCCCCCCCCCCC(=O)*; γGlu = O=C(O)[C@H](CCC(=O)[*:2])N[*:1]; Hyp = O=C(O)[C@@H]1C[C@@H](O)CN1; NMeI = CC[C@H](C)[C@H](NC)C(=O)O; Sar = CNCC(=O)O

T1: human amylin receptor 3 (hAMYR3), hCTR2 co-expressed with human receptor activity modifying protein 3 (hRAMP3) (human, UniProt P30988 25-474; O60896 24-148)
T1 sequence (looked up) 1: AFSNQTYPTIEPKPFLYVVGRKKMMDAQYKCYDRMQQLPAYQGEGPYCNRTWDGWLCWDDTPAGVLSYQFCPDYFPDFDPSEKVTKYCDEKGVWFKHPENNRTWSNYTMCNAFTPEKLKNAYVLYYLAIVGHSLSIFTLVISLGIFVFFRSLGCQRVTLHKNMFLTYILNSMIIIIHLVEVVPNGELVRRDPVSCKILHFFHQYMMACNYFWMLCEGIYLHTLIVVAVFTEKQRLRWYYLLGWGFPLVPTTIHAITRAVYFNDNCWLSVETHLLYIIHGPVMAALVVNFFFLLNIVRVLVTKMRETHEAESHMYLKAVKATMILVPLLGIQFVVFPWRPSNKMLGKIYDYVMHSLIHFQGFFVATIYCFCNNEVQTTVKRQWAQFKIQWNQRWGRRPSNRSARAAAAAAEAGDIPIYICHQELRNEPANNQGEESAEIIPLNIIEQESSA
T1 sequence (looked up) 2: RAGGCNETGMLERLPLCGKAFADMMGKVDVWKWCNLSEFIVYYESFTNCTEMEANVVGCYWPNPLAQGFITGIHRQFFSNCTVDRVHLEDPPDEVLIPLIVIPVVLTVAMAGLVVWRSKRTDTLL


Molecular target: T1, human amylin receptor 3 (hAMYR3), hCTR2 …
Assay: cell-based or functional assay

hAMYR3 EC50 (nM); cAMP induction	Binder
0.26 nM	{C20 diacid-γGlu}-RCNTATCATQRLADFLQRSSF[Sar]A[NMeI]LSSTEVGSNTP-NH2 (disulfide 2-7; SMILES CC[C@H](C)[C@@H](C(=O)N[C@@H](CC(C)C)C(=O)N[C@@H](CO)C(=O)N[C@@H](CO)C(=O)N[C@H](C(=O)N[C@@H](CCC(=O)O)C(=O)N[C@H](C(=O)NCC(=O)N[C@@H](CO)C(=O)N[C@@H](CC(N)=O)C(=O)N[C@H](C(=O)N1CCC[C@H]1C(N)=O)[C@@H](C)O)C(C)C)[C@@H](C)O)N(C)C(=O)[C@H](C)NC(=O)CN(C)C(=O)[C@H](Cc1ccccc1)NC(=O)[C@H](CO)NC(=O)[C@H](CO)NC(=O)[C@H](CCCNC(=N)N)NC(=O)[C@H](CCC(N)=O)NC(=O)[C@H](CC(C)C)NC(=O)[C@H](Cc1ccccc1)NC(=O)[C@H](CC(=O)O)NC(=O)[C@H](C)NC(=O)[C@H](CC(C)C)NC(=O)[C@H](CCCNC(=N)N)NC(=O)[C@H](CCC(N)=O)NC(=O)[C@@H](NC(=O)[C@H](C)NC(=O)[C@@H]1CSSC[C@H](NC(=O)[C@H](CCCNC(=N)N)NC(=O)CC[C@H](NC(=O)CCCCCCCCCCCCCCCCCCC(=O)O)C(=O)O)C(=O)N[C@@H](CC(N)=O)C(=O)N[C@@H]([C@@H](C)O)C(=O)N[C@@H](C)C(=O)N[C@@H]([C@@H](C)O)C(=O)N1)[C@@H](C)O) [[19CD]-isoGlu-R-C( )-NTAT-C( )-ATQRLADFLQRSSF-Gly(Me)-A-Ile(Me)-LSSTEVGSNTP-NH2 (Compd. 65)]
0.65 nM	{C20 diacid}-[γGlu]RCPTATCATERLADFLQRSSF[Sar]A[NMeI]LSSTEVGSNTP-NH2 (disulfide 3-8; SMILES CC[C@H](C)[C@@H](C(=O)N[C@@H](CC(C)C)C(=O)N[C@@H](CO)C(=O)N[C@@H](CO)C(=O)N[C@H](C(=O)N[C@@H](CCC(=O)O)C(=O)N[C@H](C(=O)NCC(=O)N[C@@H](CO)C(=O)N[C@@H](CC(N)=O)C(=O)N[C@H](C(=O)N1CCC[C@H]1C(N)=O)[C@@H](C)O)C(C)C)[C@@H](C)O)N(C)C(=O)[C@H](C)NC(=O)CN(C)C(=O)[C@H](Cc1ccccc1)NC(=O)[C@H](CO)NC(=O)[C@H](CO)NC(=O)[C@H](CCCNC(=N)N)NC(=O)[C@H](CCC(N)=O)NC(=O)[C@H](CC(C)C)NC(=O)[C@H](Cc1ccccc1)NC(=O)[C@H](CC(=O)O)NC(=O)[C@H](C)NC(=O)[C@H](CC(C)C)NC(=O)[C@H](CCCNC(=N)N)NC(=O)[C@H](CCC(=O)O)NC(=O)[C@@H](NC(=O)[C@H](C)NC(=O)[C@@H]1CSSC[C@H](NC(=O)[C@H](CCCNC(=N)N)NC(=O)CC[C@H](NC(=O)CCCCCCCCCCCCCCCCCCC(=O)O)C(=O)O)C(=O)N2CCC[C@H]2C(=O)N[C@@H]([C@@H](C)O)C(=O)N[C@@H](C)C(=O)N[C@@H]([C@@H](C)O)C(=O)N1)[C@@H](C)O) [[19CD]-isoGlu-R-C( )-PTAT-C( )-ATERLADFLQRSSF-Gly(Me)-A-Ile(Me)-LSSTEVGSNTP-NH2 (Compd. 67)]
0.17 nM	{C20 diacid}-[γGlu]RCNTATCATQRLAHFLQRSSF[Sar]A[NMeI]LSSTEVGSST[Hyp]-NH2 (disulfide 3-8; SMILES CC[C@H](C)[C@@H](C(=O)N[C@@H](CC(C)C)C(=O)N[C@@H](CO)C(=O)N[C@@H](CO)C(=O)N[C@H](C(=O)N[C@@H](CCC(=O)O)C(=O)N[C@H](C(=O)NCC(=O)N[C@@H](CO)C(=O)N[C@@H](CO)C(=O)N[C@H](C(=O)N1C[C@H](O)C[C@H]1C(N)=O)[C@@H](C)O)C(C)C)[C@@H](C)O)N(C)C(=O)[C@H](C)NC(=O)CN(C)C(=O)[C@H](Cc1ccccc1)NC(=O)[C@H](CO)NC(=O)[C@H](CO)NC(=O)[C@H](CCCNC(=N)N)NC(=O)[C@H](CCC(N)=O)NC(=O)[C@H](CC(C)C)NC(=O)[C@H](Cc1ccccc1)NC(=O)[C@H](Cc1c[nH]cn1)NC(=O)[C@H](C)NC(=O)[C@H](CC(C)C)NC(=O)[C@H](CCCNC(=N)N)NC(=O)[C@H](CCC(N)=O)NC(=O)[C@@H](NC(=O)[C@H](C)NC(=O)[C@@H]1CSSC[C@H](NC(=O)[C@H](CCCNC(=N)N)NC(=O)CC[C@H](NC(=O)CCCCCCCCCCCCCCCCCCC(=O)O)C(=O)O)C(=O)N[C@@H](CC(N)=O)C(=O)N[C@@H]([C@@H](C)O)C(=O)N[C@@H](C)C(=O)N[C@@H]([C@@H](C)O)C(=O)N1)[C@@H](C)O) [[19CD]-isoGlu-R-C( )-NTAT-C( )-ATQRLAHFLQRSSF-Gly(Me)-A-Ile(Me)-LSSTEVGSST-Hyp-NH2 (Compd. 69)]

More lines, now with the values behind:

Binder	hAMYR3 EC50 (nM); cAMP induction
{C20 diacid-γGlu}-RCNTATCATERLADFLQRSSF[Sar]A[NMeI]LSSTEVGSNT[Hyp]-NH2 (disulfide 2-7; SMILES CC[C@H](C)[C@@H](C(=O)N[C@@H](CC(C)C)C(=O)N[C@@H](CO)C(=O)N[C@@H](CO)C(=O)N[C@H](C(=O)N[C@@H](CCC(=O)O)C(=O)N[C@H](C(=O)NCC(=O)N[C@@H](CO)C(=O)N[C@@H](CC(N)=O)C(=O)N[C@H](C(=O)N1C[C@H](O)C[C@H]1C(N)=O)[C@@H](C)O)C(C)C)[C@@H](C)O)N(C)C(=O)[C@H](C)NC(=O)CN(C)C(=O)[C@H](Cc1ccccc1)NC(=O)[C@H](CO)NC(=O)[C@H](CO)NC(=O)[C@H](CCCNC(=N)N)NC(=O)[C@H](CCC(N)=O)NC(=O)[C@H](CC(C)C)NC(=O)[C@H](Cc1ccccc1)NC(=O)[C@H](CC(=O)O)NC(=O)[C@H](C)NC(=O)[C@H](CC(C)C)NC(=O)[C@H](CCCNC(=N)N)NC(=O)[C@H](CCC(=O)O)NC(=O)[C@@H](NC(=O)[C@H](C)NC(=O)[C@@H]1CSSC[C@H](NC(=O)[C@H](CCCNC(=N)N)NC(=O)CC[C@H](NC(=O)CCCCCCCCCCCCCCCCCCC(=O)O)C(=O)O)C(=O)N[C@@H](CC(N)=O)C(=O)N[C@@H]([C@@H](C)O)C(=O)N[C@@H](C)C(=O)N[C@@H]([C@@H](C)O)C(=O)N1)[C@@H](C)O) [[19CD]-isoGlu-R-C( )-NTAT-C( )-ATERLADFLQRSSF-Gly(Me)-A-Ile(Me)-LSSTEVGSNT-Hyp-NH2 (Compd. 68)]	0.29 nM
{C20 diacid-γGlu}-RCNTATCATERLADFLQRSSF[Sar]A[NMeI]LSSTEVGSNTP-NH2 (disulfide 2-7; SMILES CC[C@H](C)[C@@H](C(=O)N[C@@H](CC(C)C)C(=O)N[C@@H](CO)C(=O)N[C@@H](CO)C(=O)N[C@H](C(=O)N[C@@H](CCC(=O)O)C(=O)N[C@H](C(=O)NCC(=O)N[C@@H](CO)C(=O)N[C@@H](CC(N)=O)C(=O)N[C@H](C(=O)N1CCC[C@H]1C(N)=O)[C@@H](C)O)C(C)C)[C@@H](C)O)N(C)C(=O)[C@H](C)NC(=O)CN(C)C(=O)[C@H](Cc1ccccc1)NC(=O)[C@H](CO)NC(=O)[C@H](CO)NC(=O)[C@H](CCCNC(=N)N)NC(=O)[C@H](CCC(N)=O)NC(=O)[C@H](CC(C)C)NC(=O)[C@H](Cc1ccccc1)NC(=O)[C@H](CC(=O)O)NC(=O)[C@H](C)NC(=O)[C@H](CC(C)C)NC(=O)[C@H](CCCNC(=N)N)NC(=O)[C@H](CCC(=O)O)NC(=O)[C@@H](NC(=O)[C@H](C)NC(=O)[C@@H]1CSSC[C@H](NC(=O)[C@H](CCCNC(=N)N)NC(=O)CC[C@H](NC(=O)CCCCCCCCCCCCCCCCCCC(=O)O)C(=O)O)C(=O)N[C@@H](CC(N)=O)C(=O)N[C@@H]([C@@H](C)O)C(=O)N[C@@H](C)C(=O)N[C@@H]([C@@H](C)O)C(=O)N1)[C@@H](C)O) [[19CD]-isoGlu-R-C( )-NTAT-C( )-ATERLADFLQRSSF-Gly(Me)-A-Ile(Me)-LSSTEVGSNTP-NH2 (Compd. 66)]	0.3 nM
